Data published in patent publication US20090081724A1.

What was measured:
[1] = target: AD-CaM (Calmodulin, encoded by the CALM2 gene, fused to the activation domain) (human) (UniProt P0DP24); experiment: yeast two-hybrid, CPRG β-gal assay, against DB-Q2C wt
[2] = target: AD-CaM (Calmodulin, encoded by the CALM2 gene, fused to the activation domain) (human) (UniProt P0DP24); experiment: cell-based or functional assay

DB-KCNQ2 wild-type (wt) C-term BAIT, sequence (O43526 other isoform, or with tags, fused parts or gaps limits assumed): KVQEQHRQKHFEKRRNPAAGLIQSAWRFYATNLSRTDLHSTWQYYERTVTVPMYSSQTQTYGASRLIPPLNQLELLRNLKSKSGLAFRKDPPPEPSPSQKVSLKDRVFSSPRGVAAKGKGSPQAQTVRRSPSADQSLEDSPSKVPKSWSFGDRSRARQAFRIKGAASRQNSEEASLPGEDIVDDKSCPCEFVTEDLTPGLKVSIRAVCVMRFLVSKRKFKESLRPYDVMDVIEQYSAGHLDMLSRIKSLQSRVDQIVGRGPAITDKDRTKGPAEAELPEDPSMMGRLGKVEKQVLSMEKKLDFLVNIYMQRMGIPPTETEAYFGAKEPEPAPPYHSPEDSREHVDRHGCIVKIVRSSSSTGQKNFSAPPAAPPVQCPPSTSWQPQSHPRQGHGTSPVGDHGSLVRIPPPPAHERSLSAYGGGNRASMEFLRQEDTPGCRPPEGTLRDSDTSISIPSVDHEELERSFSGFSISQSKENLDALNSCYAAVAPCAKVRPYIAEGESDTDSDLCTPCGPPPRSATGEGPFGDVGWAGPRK

fold increase in CaM binding affinity against wt [1]	units of β-gal activity (CPRG assay, liquid culture) (units β-gal activity) [2]	Substance
5 fold	0.26	DB-Q2C L619R mutant (from UniProt O43526 319-872)
	0.05	DB-KCNQ2 wild-type (wt) C-term BAIT (from UniProt O43526 319-872)
